Here are results for 1 substance from patent publication US5985608.

In the test the target is endogenous β-actin of the bovine neutrophil plasma membrane (bovine) (UniProt P60712). Description: control of the co-immunoprecipitation, protein A-agarose beads.

Turning to “nonspecific rabbit IgG (polyclonal serum or antibody)”, the β-actin co-precipitated relative to the anti-pepA immunoprecipitate was less than 5%.
